# Measurements reported in patent publication US12440549B2, “Polyvalent immunogenicity composition for human papillomavirus” (SinoCellTech Ltd., priority 2019, dated 2025).
# Test: Expression and solubility of L1 protein in insect cells (cell lysate vs supernatant, SDS-PAGE)
# Type: physicochemical
# Conditions: supernatant after centrifugation of lysate
# Procedure: FIG. 4: Expression of C-terminal truncated HPV 16L1 (1-474). M: Marker; L: cell lysates; E-S: supernatant collected after centrifugation of the lysates.
# High Five cells were infected with baculovirus containing the HPV6 L1: 33C recombinant gene obtained in Example 2 at a ratio of 1:200 (V/V), and the cell precipitate was collected by centrifugation at 1000 g±100 g at room temperature. The cells were broken up by sonication at low temperature for 3 min, centrifuged at >10,000 g for 10 min and the supernatant was collected for SDS-PAGE. Lane 1: Marker (The marker is a mixture of 7 purified proteins with molecular weights ranging from 14.4 kDa to 116 kDa, produced by Thermo Scientific); Lane 2: cell lysate; Lane 3: supernatant of the lysate collected by centrifugation.
# The inventors attempted to truncate the C-terminus of HPV16 L1 by 31 amino acids and named it HPV16 L1 (1-474) (SEQ ID NO: 27).
substance,measurement,setting,value
HPV16 L1 (1-474): Comparative example: HPV16 L1 protein with the C-terminus truncated by 31 amino acids,solubility of the expressed L1 protein,,very poor solubility
same,solubility of the expressed L1 protein,listed as HPV 16 L1 (1-474),poor solubility
